What all share (assay): SPR; free energy change relative to wild-type D2
For orientation: Surface plasmon resonance follows binding to a sensor surface in real time, without labels.

One assay concerns the target T1, Human FGFR1 D2-His6 (human, UniProt P11362 22-254).
T1 construct: also called D2 domain; F3FR1c-D2
T1 sequence: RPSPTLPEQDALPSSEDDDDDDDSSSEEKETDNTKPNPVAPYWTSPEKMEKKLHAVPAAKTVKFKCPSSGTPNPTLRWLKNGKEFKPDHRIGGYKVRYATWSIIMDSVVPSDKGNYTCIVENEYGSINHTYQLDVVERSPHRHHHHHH
The procedure: (§1) Binding affinities of anti-FGFR1 antibodies to FGFR1 were measured by Surface Plasmon Resonance (SPR) using a GE Healthcare BIAcore 4000 instrument as follows. Goat anti-human Fc antibody (Jackson ImmunoResearch Laboratories #109-005-098) was first immobilized on BIAcore carboxymethylated dextran CM5 chip using direct coupling to free amino groups following the procedure described by the manufacturer. Antibodies were then captured on the CM5 biosensor chip to achieve approximately 200 response units (RU). Binding measurements were performed using the running HBS-EP+ buffer. A 2-fold dilution series of His-tagged FGFR1 proteins were injected at a flow rate of 30 μl/min at 25° C. Association rates (kₒₙ, per mol/s) and dissociation rates (koff, per s) were calculated using a simple 1:1 Langmuir binding model (Biacore 4000 Evaluation Software). The equilibrium dissociation constant (KD, mol) was calculated as the ratio of koff/kₒₙ.
(§2) To obtain a finer, residue-level mapping of the epitope and to complement the HD exchange data, molecular modelling and manual inspection of the crystal structure of FGFR1 [(Beenken et al. 2012); PDB record 3OJV] was used to select solvent exposed residues within and around the epitope identified by HD exchange. The selected residues were mutated either to alanine (large to small) or to glycine if the selected residue was alanine. In total 35 point mutants were designed, expressed and purified in HEK cells, and tested for binding to mAb #A08 using surface plasmon resonance as described in Example 1.8. The affinity of the antibody for wild-type and each mutant was determined and used to calculate the contribution of each epitope residue to the binding energy.
(§3) Variant were compared to wild-type D2. The change in the Gibbs free energy of binding of mutant relative to the wild-type D2 construct (ΔΔGₘᵤₜ) was derived from the ratio of the wild-type and mutant KD.

The target in assay [1] is T2, FGFR1 D2 point mutant L53A (human, UniProt P11362 22-254).
T2 chain: T1 sequence with L53A
The procedure: as §1, §2, §3

The target of assay [2] is T3, FGFR1 D2 point mutant V56A (human, UniProt P11362 22-254).
T3 chain: T1 sequence with V56A
The procedure:
as §1, §2, §3

Assay [3] addresses T4, FGFR1 D2 point mutant K65A (human, UniProt P11362 22-254).
T4 chain: T1 sequence with K65A
The procedure:
as §1, §2, §3

The target of assay [4] is T5, FGFR1 D2 point mutant P87A (human, UniProt P11362 22-254).
T5 chain: T1 sequence with P87A
The protocol: as §1, §2, §3

Assay [5] concerns the target T6, FGFR1 D2 point mutant I91A (human, UniProt P11362 22-254).
T6 chain: T1 sequence with I91A
The protocol:
as §1, §2, §3

The target in assay [6] is T7, FGFR1 D2 point mutant G93A (human, UniProt P11362 22-254).
T7 chain: T1 sequence with G93A
The procedure:
as §1, §2, §3

For assay [7], the target named is T8, FGFR1 D2 point mutant Y94A (human, UniProt P11362 22-254).
T8 construct: Uncharacteristic melting curve
T8 chain: T1 sequence with Y94A
The procedure: as §1, §2, §3

For assay [8], the target named is T9, FGFR1 D2 point mutant Y98A (human, UniProt P11362 22-254).
T9 chain: T1 sequence with Y98A
The procedure: as §1, §2, §3

Assay [9] deals with T10, FGFR1 D2 point mutant S107A (human, UniProt P11362 22-254).
T10 chain: T1 sequence with S107A
The procedure: as §1, §2, §3

Changes are numbered by the printed parent chain.

B1: mAb #A08 (antibody, V domains shown)
VH: EVQLQESGPGLVKPSGTLSLTCAVSGGSISSNNWWSWVRQPPGKGLEWIGEIYHSGSTSYNPSLKSRVTISVDKSKNQFSLKLNSVTAADTAVYYCARGTDWFDPWGQGTLVTVSS
VL: QAVLTQPPSVSVAPGQTARITCGGNNIGSESVHWYQQKPGQAPVLVVYDDSDRPSGIPERFSGSNSGNTATLTISRVEAGDEADYYCQVWDSTSDHRVFGGGTKLTVL
notes: Only variable domains are tied to the name mAb #A08 (hit); also called #A08 hit; mAb #08
As to B1, the ΔΔGmut in the assay with Human FGFR1 D2-His6 was 0 kcal/mol; in [1] it was 0.25 kcal/mol; in assay [2], 0.2 kcal/mol; in assay [3] it was -0.04 kcal/mol; in [4] it was 0.08 kcal/mol; in assay [5], 0 kcal/mol. Further, the ΔΔGmut in assay [6] is 0.29 kcal/mol; in assay [7], 0.96 kcal/mol; in [8], -0.04 kcal/mol; in [9], 0.13 kcal/mol.

The record behind these values is US20190367620A1 (Merck KGaA, published 2019).
